Reference: paper PMC4239318, “Quantitative investigation of the affinity of human respiratory syncytial virus phosphoprotein C-terminus binding to nucleocapsid protein” (Virology Journal, 2014)
Values joined by “and” are separate entries in the source; they are usually repeats but may differ in a detail not shown here. Equal entries are not always repeated. Square brackets hold non-standard residues; d marks the D form. Ends that are not written are not given here. Peptide text beside a SMILES is read from it. * marks the point of attachment. BODIPY(FL) = CC1=CC(C)=[N+]2C1=Cc1ccc(CCC(=O)*)n1[B-]2(F)F; pS = N[C@@H](COP(=O)(O)O)C(=O)O

How the values were obtained:
RSV-N(13-391) [1] = molecular target: T1, RSV-N(13-391) (Human respiratory syncytial virus A, UniProt P03418)
Protocol: (§1) Samples of 10 μl containing peptides and proteins as indicated were prepared in buffer composed of 10 mM Tris-HCl (pH 7.5) +0.01% Brij-35 detergent (Pierce Surfact-Amps-35, Thermo Fisher Scientific, Rockford, IL) in low-volume 384-well black polystyrene assay plates (Thermo Fisher Scientific, Hudson, NH). After a 5 minute incubation, fluorescence anisotropy was measured with a Pherastar plate reader (BMG Labtech, Cary, NC) equipped with a filter module having a 485 nm excitation filter and 520 nm emission filters with polarizers. The focal height was 10.8 mm. Each measurement used 50 flashes. The parallel and perpendicular detector gains were set to 392 and 366 in order to produce an anisotropy of about 0.03 in the absence of binding.
The averages of triplicate fluorescence anisotropy measurements made at each RSV-N(13-391) concentration were fit to the equation y=yo+aN/Kd+N where y is the anisotropy, yo is the anisotropy of peptide alone, [N] is the RSV-N(13-391) concentration, and yo + a is the anisotropy of fully bound peptide.
(§2) All fluorescence anisotropy measurements were performed at ambient temperature, approximately 21°C.

RSV-N(13-391) [2] = molecular target: T1, RSV-N(13-391); assay: biochemical; conditions: from ΔG = RT ln Kd and IC50 = 2 × Kd; 10 mM Tris-HCl pH 7.5 at 21°C; approximate
Protocol: as §1
The averages of triplicate anisotropy measurements made at each competitor concentration were used to calculate % inhibition using the equation %inhibition=1001–r–rmin/rmax–rmin where r is the anisotropy at the competitor concentration, rmin is the anisotropy with no RSV-N(13-391), and rmax is the anisotropy with no competititor.
as §2
For the BP5 competition assay, the P protein storage buffer was replaced by repeated concentration using centrifugal ultrafiltration with a Millipore Ultrafree 0.5 unit with Biomax-10 membrane (EMD Millipore, Billerica, MA) and dilution with 10 mM Tris-HCl (pH 7.5). The protein concentration was determined by the method of Bradford using bovine serum albumin as the standard. Serial dilutions of P were prepared in 10 mM Tris-HCl (pH 7.5) +0.01% Brij-35.

15N-labeled N(31-252) = molecular target: T2, 15N-labeled N(31-252) (Human respiratory syncytial virus A, UniProt P03418); assay: 2-D NMR [15N,1H] TROSY titration, chemical shift perturbation; format: binding, human respiratory syncytial virus (strain A2); conditions: 0.15 mM 15N N(31-252); 25 mM HEPES pH 7.5, 100 mM NaCl, 1 mM DTT, 1 mM EDTA; 298 K; global best fit ± standard error of fit; read-out: Kd measured by NMR
T2 construct: His6 (N); TEV protease cleavage recognition site (N); made in house; host or cells: E. coli BL21(DE3)pLysS, M9 minimal medium with [15N]; NH4Cl
Protocol: NMR spectra were acquired at 298 K with a 600 MHz NMR instrument (Bruker, Billerica MA) equipped with an AVANCE III console and a triple-resonance cryogenic probe. Samples were at pH 7.5 in a 25 mM HEPES buffer containing 100 mM NaCl, 1 mM dithiothreitol, and 1 mM EDTA. The concentration of ^15N labeled RSV N(31-252) was 0.15 mM. Two-dimensional [^15N, ^1H] transverse relaxation optimized spectroscopy (TROSY) experiments were recorded with increasing ligand concentration. Evolution times were approximately 53 ms in the ^1H dimension and 29 ms in the ^15N dimension. The total acquisition time was 28 min per experiment.
To estimate the dissociation constant (Kd) from NMR experiments, ^15N-RSV N(31-252) was titrated with a range of ligand concentrations. The weighted average of chemical shift changes (Δδ(N, H)obs) is calculated using the following equation: ΔδN,Hobs=ΔδHN^2+ΔδΝ/5^2 where ΔδHN and ΔδN are the chemical shift changes of amide protons and nitrogens, respectively. Then Δδ(N, H)obs data were fitted by non-linear regression globally against the total concentration of the subtrate (LT) with the equation: ΔδN,Hobs=ΔδN,HmaxKd+LT+ET‐Kd+LT+ET^2−4LTET/2ET where Δδ(N, H)max is the maximum chemical shift difference, ET is the total concentration of N(31-352) in the solution, and LT is the total concentration of ligand.

[3] = molecular target: T3, RSV N(13-391), N-terminally truncated nucleocapsid protein (human respiratory syncytial virus, …, UniProt P03418 13-391); assay: fluorescence polarisation; fluorescence anisotropy, competition with 25 nM BP5 and 75 nM N(13-391), competitor varied; 10 mM Tris-HCl pH 7.5, 0.01% Brij-35; about 21 °C; conditions: both partners purified
T3 construct: source: E. coli BL21(DE3)pLysS, purified (Ni2+ chelating, Q-Sepharose, Superdex 200)
T3 sequence: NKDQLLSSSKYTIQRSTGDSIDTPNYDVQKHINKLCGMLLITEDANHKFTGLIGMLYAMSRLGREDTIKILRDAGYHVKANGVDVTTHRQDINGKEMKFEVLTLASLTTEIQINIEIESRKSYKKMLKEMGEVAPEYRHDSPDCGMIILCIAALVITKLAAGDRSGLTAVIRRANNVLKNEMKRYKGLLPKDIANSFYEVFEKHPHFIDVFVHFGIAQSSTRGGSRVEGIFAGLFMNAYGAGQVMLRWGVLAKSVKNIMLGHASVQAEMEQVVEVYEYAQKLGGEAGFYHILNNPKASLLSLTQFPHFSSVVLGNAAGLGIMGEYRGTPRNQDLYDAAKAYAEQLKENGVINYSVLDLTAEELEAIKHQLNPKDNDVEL

[4] = molecular target: T4, RSV N(31-252), nucleocapsid construct consisting of residues 31-252 (human respiratory syncytial virus, …, UniProt P03418 31-252); assay: NMR titration; 2-D [15N,1H] TROSY of 0.15 mM 15N-labeled N(31-252) with increasing ligand; 25 mM HEPES pH 7.5, 100 mM NaCl, 1 mM DTT, 1 mM EDTA; 298 K; conditions: both partners purified
T4 construct: source: E. coli BL21(DE3)pLysS, purified (Ni2+ chelating, Superdex 200)
T4 sequence: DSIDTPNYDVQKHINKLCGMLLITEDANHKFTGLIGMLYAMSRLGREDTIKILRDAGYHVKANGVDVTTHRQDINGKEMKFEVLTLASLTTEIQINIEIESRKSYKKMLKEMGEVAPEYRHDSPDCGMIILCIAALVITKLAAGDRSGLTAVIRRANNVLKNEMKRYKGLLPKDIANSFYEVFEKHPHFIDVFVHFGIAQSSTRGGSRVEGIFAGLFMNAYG

[5] = molecular target: T3, RSV N(13-391), N-terminally truncated …; assay: SPR; Biacore T200; His10-P immobilised on NTA chip (nickel capture, amine coupling); 100 nM N(13-391) mixed with peptide series; 20 mM HEPES-NaOH pH 7.5, 100 mM NaCl, 1 mM EDTA, 1 mM TCEP, 0.005% Tween 20, 1% DMSO; conditions: both partners purified
[6] = molecular target: T3, RSV N(13-391), N-terminally truncated …; assay: fluorescence polarisation; fluorescence anisotropy, competition with 25 nM BP5 and 75 nM N(13-391), competitor varied; 10 mM Tris-HCl pH 7.5, 0.01% Brij-35; about 21 °C; conditions: both partners purified; remark: listed apart in the source
[7] = molecular target: T3, RSV N(13-391), N-terminally truncated …; assay: fluorescence polarisation; fluorescence anisotropy, direct binding; 100 nM BP1 or 25 nM BP5, N(13-391) varied; 10 mM Tris-HCl pH 7.5, 0.01% Brij-35; about 21 °C; conditions: both partners purified
[8] = molecular target: T3, RSV N(13-391), N-terminally truncated …; assay: fluorescence polarisation; conditions: both partners purified

Cc1cc(C)n2c1C=C1C=CC(CCC(=O)N[C@@H](CC(=O)O)C(=O)N[C@@H](COP(=O)(O)O)C(=O)N[C@@H](CC(=O)O)C(=O)N[C@@H](CC(N)=O)C(=O)N[C@@H](CC(=O)O)C(=O)N[C@@H](CC(C)C)C(=O)N[C@@H](COP(=O)(O)O)C(=O)N[C@@H](CC(C)C)C(=O)N[C@@H](CCC(=O)O)C(=O)N[C@@H](CC(=O)O)C(=O)N[C@@H](Cc3ccccc3)C(=O)O)=[N+]1[B-]2(F)F [BP5] ({BODIPY(FL)}-D[pS]DNDL[pS]LEDF-OH)
Effect of KCl concentration (ionic strength) on affinity for N(13-391) (RSV-N(13-391) [1]; Kds measured with N(13-391) 1.95 to 2000 nM in triplicate, Figure 1B): diminished as the ionic strength increased
affinity relative to unphosphorylated peptide BP1 (RSV-N(13-391) [1]; ratio of Kds for N(13-391)): about 10 times

CC(C)C[C@H](NC(=O)[C@H](COP(=O)(O)O)NC(=O)[C@H](CC(C)C)NC(=O)[C@H](CC(=O)O)NC(=O)[C@H](CC(N)=O)NC(=O)[C@H](CC(=O)O)NC(=O)[C@H](COP(=O)(O)O)NC(=O)[C@@H](N)CC(=O)O)C(=O)N[C@@H](CCC(=O)O)C(=O)N[C@@H](CC(=O)O)C(=O)N[C@@H](C)C(=O)O [D(pS)DNDL(pS)LEDA]
ΔG of binding to RNA-free N(13-391) (RSV-N(13-391) [2]): -6.0 kcal/mol

CC(C)C[C@H](NC(=O)[C@H](COP(=O)(O)O)NC(=O)[C@H](CC(C)C)NC(=O)[C@H](CC(=O)O)NC(=O)[C@H](CC(N)=O)NC(=O)[C@H](CC(=O)O)NC(=O)[C@H](COP(=O)(O)O)NC(=O)[C@@H](N)CC(=O)O)C(=O)N[C@@H](CCC(=O)O)C(=O)N[C@@H](CC(=O)O)C(=O)N[C@@H](Cc1ccccc1)C(=O)O [D(pS)DNDL(pS)LEDF] (H-D[pS]DNDL[pS]LEDF-OH)
ΔG of binding to RNA-free N(13-391) (RSV-N(13-391) [2]): -8.7 kcal/mol

N[C@@H](CC(=O)O)C(=O)N[C@@H](Cc1ccccc1)C(=O)O [DF, Asp-Phe, reference compound] (H-Asp-Phe-OH)
Kd (15N-labeled N(31-252)): 2600 µM

DSDNDLSLEDF
ΔG of binding to RNA-free N(13-391) (RSV-N(13-391) [2]): -6.9 kcal/mol

B1: peptide 5, D(pS)DNDL(pS)LEDF (doubly phosphorylated P C-terminal peptide) (peptide)
peptide: D[pS]DNDL[pS]LEDF
notes: residues 231-241 of RSV phosphoprotein P; N- and C-termini uncapped; source: synthetic peptide (Biopeptide Co.)
IC50 [3]: 0.61 µM and 0.74 µM
Kd [4]: 74 µM
IC50 [5]: 13.6 µM
Kd [6]: ~0.34 µM

B2: BP1, BODIPY-FL labeled peptide 1 (DSDNDLSLEDF) (peptide)
peptide: {BODIPY(FL)}-DSDNDLSLEDF
notes: C-terminal 11 residues (231-241) of RSV phosphoprotein P; C-terminus uncapped; source: synthetic peptide (Biopeptide Co.), labelled with BODIPY FL SSE, purified on Sephadex LH-20
Kd [7]: 0.76 µM

B3: DSDNDLSLEDA (unphosphorylated P C-terminal peptide, C-terminal Phe changed to Ala) (peptide)
peptide: DSDNDLSLEDA
notes: also called Ala-modified peptide; source: synthetic peptide (Biopeptide Co.)
IC50 [8]: > 200 µM

B4: D(pS)DNDL(pS)LEDA (doubly phosphorylated P C-terminal peptide, C-terminal Phe changed to Ala) (peptide)
peptide: D[pS]DNDL[pS]LEDA
notes: source: synthetic peptide (Biopeptide Co.)
IC50 [8]: 69 µM

B5: D(pS)DNDLSLEDF (P C-terminal peptide phosphorylated on the N-terminal serine) (peptide)
peptide: D[pS]DNDLSLEDF
notes: as for B1
IC50 [3]: 2.17 µM
IC50 [5]: 44 µM

B6: peptide 1, DSDNDLSLEDF (unphosphorylated P C-terminal peptide) (peptide)
peptide: DSDNDLSLEDF
notes: as for B1
IC50 [3]: 15.3 µM
IC50 [5]: 230 µM
Kd [6]: ~7.6 µM

B7: DSDNDL(pS)LEDF (P C-terminal peptide phosphorylated on the C-terminal serine) (peptide)
peptide: DSDNDL[pS]LEDF
notes: as for B1
IC50 [3]: 1.51 µM
IC50 [5]: 31 µM

B8: BP5, BODIPY-FL labeled peptide 5 (D(pS)DNDL(pS)LEDF) (peptide)
peptide: {BODIPY(FL)}-D[pS]DNDL[pS]LEDF
notes: as for B2
Kd [7]: 0.078 µM
